Laboratory results from patent publication US20170291939A1 (Novartis, published 2017).

Assays:
[1] = molecular target: T1, human IL-17A (construct not specified) (human, UniProt Q16552 24-155, limits assumed); assay: cell-based or functional assay
T1 sequence: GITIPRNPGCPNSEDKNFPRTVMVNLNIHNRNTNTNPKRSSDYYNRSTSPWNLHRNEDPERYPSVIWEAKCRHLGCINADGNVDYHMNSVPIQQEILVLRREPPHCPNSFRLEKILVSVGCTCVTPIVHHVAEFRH

[2] = molecular target: T2, recombinant huIL-17A (SEQ ID NO: 76) (human, UniProt Q16552 24-155, limits assumed); assay: cell-based or functional assay
T2 sequence: T1 sequence

[3] = molecular target: T2, recombinant huIL-17A (SEQ ID NO: 76); assay: cell-based or functional assay; remark: listed apart in the source
recombinant mIL-17A = molecular target: T3, recombinant mIL-17A (mouse, UniProt Q62386 26-158); assay: cell-based or functional assay
T3 sequence: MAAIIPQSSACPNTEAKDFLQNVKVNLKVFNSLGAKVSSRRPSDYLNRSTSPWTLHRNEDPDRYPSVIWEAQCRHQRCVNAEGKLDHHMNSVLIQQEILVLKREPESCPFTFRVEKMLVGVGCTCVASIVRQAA

cynomolgus IL-17A = molecular target: T4, cynomolgus IL-17A (cynomolgus monkey, UniProt Q16552 24-155 (human entry), limits assumed); assay: affinity determination (Tables 18-21)
T4 construct: also called cynoIL-17A; cyno IL-17A
T4 chain: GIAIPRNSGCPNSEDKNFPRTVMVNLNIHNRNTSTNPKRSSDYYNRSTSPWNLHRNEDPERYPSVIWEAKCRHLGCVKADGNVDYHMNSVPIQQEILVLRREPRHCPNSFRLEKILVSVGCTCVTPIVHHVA

rat IL-17A = molecular target: T5, rat IL-17A (rat, UniProt Q61453 18-150); assay: affinity determination (Tables 18-21)
T5 construct: also called rIL-17A; rratIL-17A
T5 sequence: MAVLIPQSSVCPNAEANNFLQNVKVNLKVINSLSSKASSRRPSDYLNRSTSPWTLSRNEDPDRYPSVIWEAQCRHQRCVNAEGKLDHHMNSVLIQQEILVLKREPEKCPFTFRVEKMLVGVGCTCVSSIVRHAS

B1: XAB2 (antibody, human IgG1, kappa, V domains shown)
VH: EVQLVESGGDLVQPGGSLRLSCAASGFTFSSYWMSWVRQAPGKGLEWVANIKQDGSEKYYVDSVKGRFTISRDNAKNSLYLQMNSLRAEDTAVYYCARDRGSLYYWGQGTLVTVSS
VL: AIQLTQSPSSLSASVGDRVTITCRPSQVIISALAWYQQKPGKAPKLLIYDASSLEQGVPSRFSGSVSGTDFTLTISSLQPEDFATYYCQQFDSYPLTFGGGTKVEIKR
notes: full IgG
EC50, T = 0 weeks [1]: 0.045 µg/mL
EC50, T = 4 weeks at pH 8, 40° C. (forced deamidation) [1]: 47 ng/ml
IC50, huIL-6 secretion by BJ cells; rhuIL-17A (0.5 nM) [2]: 640 pM
IC50, huGROα secretion by BJ cells; rhuIL-17A (0.5 nM) [3]: 400 pM
IC50, KC secretion by CMT-93 cells; mIL-17A (0.15 nM) (recombinant mIL-17A): 20900 pM
binding result (cynomolgus IL-17A): binds
binding result (rat IL-17A): binds
